Test results reported in paper PMC5566574 (Frontiers in Immunology, 2017).

T1: biotinylated human interleukin 23 (human, UniProt Q9NPF7 20-189; P29460 23-328, biotin (Sulfo-NHS-LC-Biotin; sites not stated) | biotin (Sulfo-NHS-LC-Biotin; sites not stated))
T1 construct: interleukin 23 subunit p19, human; p40 subunit shared by IL12 and IL23, human; also called biotinylated hIL23; source: bought: eBioscience; biotinylated using Sulfo-NHS-LC-Biotin (Pierce)
T1 sequence (looked up) 1: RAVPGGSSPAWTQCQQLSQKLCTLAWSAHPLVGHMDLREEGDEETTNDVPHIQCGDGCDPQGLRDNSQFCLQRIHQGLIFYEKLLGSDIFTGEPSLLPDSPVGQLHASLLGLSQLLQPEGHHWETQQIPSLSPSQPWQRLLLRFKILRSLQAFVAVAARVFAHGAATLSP
T1 sequence (looked up) 2: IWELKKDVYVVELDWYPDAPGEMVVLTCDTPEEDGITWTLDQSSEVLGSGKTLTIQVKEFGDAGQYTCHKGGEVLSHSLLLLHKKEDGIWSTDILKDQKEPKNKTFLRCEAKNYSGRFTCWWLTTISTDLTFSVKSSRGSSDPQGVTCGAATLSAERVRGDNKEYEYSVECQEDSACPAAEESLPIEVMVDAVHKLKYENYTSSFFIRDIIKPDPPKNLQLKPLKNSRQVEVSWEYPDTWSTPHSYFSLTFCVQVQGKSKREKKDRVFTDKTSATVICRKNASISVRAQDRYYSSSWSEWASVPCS

T2: p40 subunit of human interleukin 23 (human, UniProt P29460 23-328, saccharidic chain of the complex type at Asn 200 (GlcNAc2-Man3 core seen in the crystal))
T2 construct: p40 subunit shared by IL12 and IL23, human; never handled apart from p19; also called IL12-shared p40 subunit; source: bought as part of hIL23 (R&D Systems Inc. or eBioscience)
T2 sequence (looked up): T1 sequence (looked up) 2

B1: hIL23 receptor (R)-fragment crystallizable region (Fc) (Fc fusion, human, UniProt Q5VWK5 24-355, looked up)
chain: GITNINCSGHIWVEPATIFKMGMNISIYCQAAIKNCQPRKLHFYKNGIKERFQITRINKTTARLWYKNFLEPHASMYCTAECPKHFQETLICGKDISSGYPPDIPDEVTCVIYEYSGNMTCTWNAGKLTYIDTKYVVHVKSLETEEEQQYLTSSYINISTDSLQGGKKYLVWVQAANALGMEESKQLQIHLDDIVIPSAAVISRAETINATVPKTIIYWDSQTTIEKVSCEMRYKATTNQTWNVKEFDTNFTYVQQSEFYLEPNIKYVFQVRCQETGKRYWQPWSSLFFHKTPETVPQVTSKAFQHDTWNSGLTVASISTGHLTSDNRGDIG
notes: interleukin 23 receptor, human; also called hIL23R-Fc; source: bought: R&D Systems Inc
B2: p19 subunit of human interleukin 23 (natural protein, UniProt Q9NPF7 20-189, looked up)
chain: T1 sequence (looked up) 1
notes: interleukin 23 subunit p19, human; never handled apart from p40; also called IL23p19; hIL23 p19 subunit; source: bought as part of hIL23 (R&D Systems Inc. or eBioscience)
B3: nanobody 37D5 (VHH)
VHH: EVQLVESGGGLVQPGGSLRLSCAASGFTLDYLAIGWFRQAPGKEREGVSCVSSSGQYTYYADSVKGRFTISRDNAESTVYLQMNSLKPEDTAVYYCATDPECYRVRGYYNGEYDYWGQGTQVTVSS
notes: nanobody 37D5 (llama VHH); both add C-terminal c-myc and hexa-histidine tags; also called p19+ nanobody 37D5; source: E. coli TG1, periplasmic extract (screening); purified (Ni-NTA; Superdex75 for crystallization); not shown: c-myc, C-terminal, kept
B4: nanobody 22E11 (VHH)
VHH: EVQLVESGGGLVQAGGSLRLSCAASGRTFSWSAVGWFRQAPGKEREFVAAIRWSGGSPYYADSVKDRFTISRDNAKNTVYLQMNSLRPEDTAVYLCGETSLFPTSRGSHYDTWGQGTQVTVSS
notes: nanobody 22E11 (llama VHH); both add C-terminal c-myc and hexa-histidine tags; also called p40+ nanobody 22E11; source: E. coli TG1, periplasmic extract (screening); purified (Ni-NTA; Superdex75 for crystallization); not shown: c-myc, C-terminal, kept
B5: nanobody 124C4 (VHH)
VHH: EVQLVESGGGLVQPGGSLRLSCAASGFTLDDYAIAWFRQAPGKEREGVSGIDSGDGSAYYADSVKGRFTISSDNAKNTVYLQMNSLRPEDTAVYYCARVRTGWGLNAPDYAMDYWGKGTLVTVSS
notes: nanobody 124C4 (llama VHH); both add C-terminal c-myc and hexa-histidine tags; also called p19− nanobody 124C4; source: E. coli TG1, periplasmic extract (screening); purified (Ni-NTA; Superdex75 for crystallization); not shown: c-myc, C-terminal, kept
B6: biotinylated human interleukin 12 (complex)
chain 1: RNLPVATPDPGMFPCLHHSQNLLRAVSNMLQKARQTLEFYPCTSEEIDHEDITKDKTSTVEACLPLELTKNESCLNSRETSFITNGSCLASRKTSFMMALCLSSIYEDLKMYQVEFKTMNAKLLMDPKRQIFLDQNMLAVIDELMQALNFNSETVPQKSSLEEPDFYKTKIKLCILLHAFRIRAVTIDRVMSYLNAS
chain 2: T1 sequence (looked up) 2
modifications: biotin (Sulfo-NHS-LC-Biotin; sites not stated) | biotin (Sulfo-NHS-LC-Biotin; sites not stated)
notes: p35 subunit of IL12, human; p40 subunit shared by IL12 and IL23, human; also called biotinylated hIL12; source: bought: R&D Systems Inc; biotinylated using Sulfo-NHS-LC-Biotin (Pierce)

What was measured:
[1] = molecular target: T1, biotinylated human interleukin 23; experiment: AlphaScreen or HTRF; serial dilutions of purified nanobody (250 nM to 1 pM) preincubated with 500 pM biotinylated hIL23 or 3 nM biotinylated hIL12; IL23R or IL12Rβ1 on acceptor beads via an antihuman Fc monoclonal antibody; streptavidin donor beads; 1 h at room temperature; details: both partners purified
[2] = molecular target: T2, p40 subunit of human interleukin 23; experiment: crystal structure; hIL23 with nanobodies 37D5, 124C4 and 22E11; sitting drop, 277 K, 16.5% PEG 20 K, 0.1 M MES pH 5.9; two complexes per asymmetric unit; PDB 4GRW; details: both partners purified
[3] = molecular target: T3, p40 subunit of human interleukin 23 (human, UniProt P29460, saccharidic chain of the complex type at Asn 200 (GlcNAc2-Man3 core seen in the crystal)); experiment: as above; details: both partners purified
T3 construct: p40 subunit shared by IL12 and IL23, human; never handled apart from p19; also called IL12-shared p40 subunit; source: bought as part of hIL23 (R&D Systems Inc. or eBioscience)

[4] = molecular target: T4, human interleukin 23 (Homo sapiens, UniProt Q9NPF7;P29460, saccharidic chain of the complex type at Asn 200 (GlcNAc2-Man3 core seen in the crystal)); experiment: SPR; Biacore T100; hIL23 covalently bound to a CM5 chip via amine coupling; purified nanobodies 1 to 300 nM injected for 4 min at 45 µl/min; details: both partners purified
T4 construct: interleukin 23 subunit p19, human; p40 subunit shared by IL12 and IL23, human; Heterodimer with a disulfide bridge between Cys 54 (p19) and Cys177 (p40); the splenocyte assay used eBioscience hIL23; also called hIL23; IL23; source: bought: R&D Systems Inc. and eBioscience

[5] = molecular target: T5, biotinylated human interleukin 23 (human, UniProt Q9NPF7;P29460, biotin (Sulfo-NHS-LC-Biotin; sites not stated) | biotin (Sulfo-NHS-LC-Biotin; sites not stated)); experiment: AlphaScreen or HTRF; serial dilutions of purified nanobody (250 nM to 1 pM) preincubated with 500 pM biotinylated hIL23 or 3 nM biotinylated hIL12; IL23R or IL12Rβ1 on acceptor beads via an antihuman Fc monoclonal antibody; streptavidin donor beads; 1 h at room temperature; details: both partners purified
T5 construct: interleukin 23 subunit p19, human; p40 subunit shared by IL12 and IL23, human; also called biotinylated hIL23; source: bought: eBioscience; biotinylated using Sulfo-NHS-LC-Biotin (Pierce)

[6] = molecular target: T6, mouse (m) IL23 (Mus musculus (Mouse)., UniProt Q9EQ14;P43432); experiment: SPR; species cross-reactivity of the monovalent nanobodies on cyno IL23 and mouse IL23; off-rates compared; set-up not described
T6 construct: interleukin 23 subunit p19, mouse; p40 subunit, mouse; source: bought: R&D Systems Inc
T6 sequence (Q9EQ14 22-196, chain 1 of 2): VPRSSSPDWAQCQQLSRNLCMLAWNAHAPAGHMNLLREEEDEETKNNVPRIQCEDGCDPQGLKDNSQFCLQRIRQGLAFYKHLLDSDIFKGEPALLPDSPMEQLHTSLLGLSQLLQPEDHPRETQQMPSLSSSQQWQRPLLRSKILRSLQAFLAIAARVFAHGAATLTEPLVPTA
T6 sequence (P43432 23-335, chain 2 of 2): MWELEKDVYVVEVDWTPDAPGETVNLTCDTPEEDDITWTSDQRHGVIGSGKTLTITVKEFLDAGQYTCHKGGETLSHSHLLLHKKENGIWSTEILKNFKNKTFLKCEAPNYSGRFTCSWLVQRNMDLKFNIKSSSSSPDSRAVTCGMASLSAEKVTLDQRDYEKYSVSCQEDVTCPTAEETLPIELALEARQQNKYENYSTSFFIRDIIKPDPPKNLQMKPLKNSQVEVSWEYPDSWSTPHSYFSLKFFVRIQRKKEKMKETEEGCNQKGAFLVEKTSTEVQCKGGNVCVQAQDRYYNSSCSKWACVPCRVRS

[7] = molecular target: T7, cynomolgus monkey (cyno) IL23 (Macaca fascicularis (cynomolgus monkey), UniProt H6WS56;H6WS55); experiment: as above
T7 construct: interleukin 23 subunit p19, cynomolgus monkey; construct not described; p40 subunit, cynomolgus monkey; source: produced at Ablynx, Ghent/Zwijnaarde, Belgium

[8] = molecular target: T4, human interleukin 23; experiment: cell-based or functional assay
[9] = molecular target: T8, biotinylated human interleukin 12 (human, UniProt P29459;P29460, biotin (Sulfo-NHS-LC-Biotin; sites not stated) | biotin (Sulfo-NHS-LC-Biotin; sites not stated)); experiment: AlphaScreen or HTRF; serial dilutions of purified nanobody (250 nM to 1 pM) preincubated with 500 pM biotinylated hIL23 or 3 nM biotinylated hIL12; IL23R or IL12Rβ1 on acceptor beads via an antihuman Fc monoclonal antibody; streptavidin donor beads; 1 h at room temperature; details: both partners purified
T8 construct: p35 subunit of IL12, human; p40 subunit shared by IL12 and IL23, human; also called biotinylated hIL12; source: bought: R&D Systems Inc; biotinylated using Sulfo-NHS-LC-Biotin (Pierce)

[10] = molecular target: human interleukin 12 (human, UniProt P29459;P29460); experiment: cell-based or functional assay
[11] = molecular target: T9, IL12Rβ-Fc chimera (human, UniProt P42701 24-545); experiment: AlphaScreen or HTRF; serial dilutions of purified nanobody (250 nM to 1 pM) preincubated with 500 pM biotinylated hIL23 or 3 nM biotinylated hIL12; IL23R or IL12Rβ1 on acceptor beads via an antihuman Fc monoclonal antibody; streptavidin donor beads; 1 h at room temperature; details: both partners purified
T9 construct: interleukin 12 receptor subunit beta 1, human; The materials name it 'IL12Rβ-Fc chimera'; the assay and results name IL12Rβ1 / hIL12Rβ1; also called IL12Rβ1; hIL12Rβ1; source: bought: R&D Systems Inc

| Binder | binding result [3] | Kd [4] | koff [4] | kon [4] | binding result [6] | binding result [7] | further results |
| --- | --- | --- | --- | --- | --- | --- | --- |
| B1 |  |  |  |  |  |  | binding result [1]: binds |
| B2 |  |  |  |  |  |  | binding result [2]: binds |
| B3 | binds | 0.6 nM | 0.00018 s⁻¹ | 320000 M⁻¹ s⁻¹ | no binding | binds | IC50 [5]: 0.11 nM; IC50 of inhibition of mIL22 secretion by mouse splenocytes stimulated with 19 pM hIL23; blocks IL23/IL23R [8]: 19 pM |
| B4 | binds |  | 0.00023 s⁻¹ |  | no binding | binds | IC50 [9]: 1.3 nM; IC50 of block of hIL12-dependent proliferation of PHA blasts (4 pM hIL12 for stimulation; data not shown) [10]: 95 pM; IC50 of inhibition of mIL22 secretion by mouse splenocytes stimulated with 19 pM hIL23 [8]: 186 pM |
| B5 | binds | 3.3 nM | 0.00033 s⁻¹ | 100000 M⁻¹ s⁻¹ | binds | binds |  |
| B6 |  |  |  |  |  |  | binding result [11]: binds |
